Measured values published in the RNAGym collection of RNA variant scans (doi:10.7554/elife.80360).

B1: HDV Ribozyme (parent)
chain: GGCCGGCAUGGUCCCAGCCUCCUCGCUGGCGCCGGCUGGGCAACAUUCCGAGGGGACCGUCCCCUCGGUAAUGGCGAAUGGGACCCA

Variants of: B1
Assay: self-cleavage, relative activity (ratio to wild type); higher = more cleavage; co-transcriptional

Variant | self-cleavage
G28U C62U | 0.205
G28U C62A | 0.154
G29A C66U | 0.114
G28U U69A | 0.162
G28U U69C | 0.0791
G28U A87C | 0.113
G28U U72A | 0
G29A C44G | 0.151
G29A C44A | 0.198
G29A G39A | 0.0863
G29A G39U | 0.0432
G29A G39C | 0.0941
G29A C86G | 0.138
G29A C86U | 0.0314
G29A G40A | 0.237
G28U C57U | 0.208
G28U C57A | 0.102
G28U G54U | 0.0712
G28U G54A | 0.115
G28U G54C | 0.234
G28U A43G | 0.131
G28U A43C | 0.0755
G28C G82A | 0.0852
G28C G82U | 0.102

Variant | self-cleavage
G28U C75A | 0.0755
G28U G38A | 0.0863
G28U G38C | 0.0665
G29A C63U | 0.226
G29A C63G | 0.128
G28U G76C | 0.242
G28U G76U | 0.187
G28U G76A | 0.142
G28U U47G | 0.095
G28U U47A | 0.111
G28U G34U | 0.117
G28U G34C | 0.101
G28C U47C | 0.0665
G28C U47G | 0.0536
G28C U47A | 0.0536
G29A A45G | 0.142
G29A A45U | 0.0332
G29A A45C | 0
G29A A77G | 0.095
G29A C48U | 0.0656
G29A C48A | 0.262
G29A C48G | 0.0875
G29A G38U | 0.113
G28U G67C | 0.0545

Variant | self-cleavage
G28U G67A | 0.164
G28U G39C | 0.125
G28U G39A | 0.0256
G29A A83U | 0.208
G29A A83G | 0.0611
G28U U79G | 0.0978
G28U U79A | 0.0978
G28U U79C | 0.0707
G28C U72G | 0.138
G28C U72C | 0
G29A A71U | 0.0615
G28C G81C | 0.0875
G29A C84A | 0.245
G29A C84U | 0.133
G28U A42U | 0.138
G28U A42C | 0.0415
G29A C61A | 0.177
G28U U60C | 0.0755
G28U U60A | 0.17
G29A A43U | 0.0252
G29A A43G | 0.0386
G29A C57A | 0.282
G29A C57U | 0.234
G28U G74A | 0.0528

Variant | self-cleavage
G28U G74U | 0.0639
G28U G74C | 0.0992
G28U C85G | 0.108
G28U C85U | 0.0639
G28U C63U | 0.12
G28U G50C | 0.212
G28U G50U | 0.163
G29A C85U | 0.0978
G28U G29C | 0.106
G28U C86G | 0.217
G28U A78C | 0.0923
G29A G52A | 0.0554
G28C U60C | 0.0852
G28U C48U | 0.0361
G28U C48A | 0.125
G29A A51U | 0.277
G29A A51G | 0.366
G29A A78G | 0.0804
G29A A78C | 0.0997
G29A A42C | 0.104
G28U G80C | 0.0639
G28U G82U | 0.0468
G28U G35U | 0.0936
G28U G59A | 0.0936

Variant | self-cleavage
G28U C66A | 0.197
G28U C66G | 0.277
G28U A56U | 0.0941
G28U A56G | 0
G28U C32G | 0.133
G28U C49G | 0.116
G28U A71U | 0.246
G28U A70U | 0
G28C U46G | 0.0755
G28C U46C | 0.0723
G29A C62A | 0.391
G28U C44G | 0.111
G28U C44U | 0.0297
G28U C44A | 0
G28U G31C | 0.189
G28U C64A | 0.125
G28U C36U | 0
G28U C36A | 0.0898
G28U C36G | 0.0665
G28U G55U | 0.185
G28U G55A | 0.0712
G28U A83U | 0.0415
G28U U46G | 0
G28U U46C | 0

Variant | self-cleavage
G29A C64U | 0.144
G28U U65C | 0.0707
G28U U65G | 0.128
G29A A70C | 0.0978
G29A A70G | 0.17
G29A A70U | 0.0739
G29A A56C | 0.198
G29A A56G | 0.224
G29A C58U | 0.197
G29A C58G | 0.271
G28U C58G | 0.0852
G28U G68C | 0.0733
G29A C49A | 0.136
G28C U37A | 0.229
G28C U37G | 0
G28U A45G | 0.208
G29A G35C | 0.149
G29A G35U | 0.101
G28U C61G | 0.0678
G29A C75U | 0.0339
G29A C41G | 0.0339
G29A C33A | 0.104
G28U C84A | 0.0594
G28U C84U | 0.0489

Variant | self-cleavage
G29A C36G | 0.111
G29A C36A | 0.0222
G29A G53U | 0.114
G28U A77C | 0.0475
G29A C30U | 0.095
G29A C30A | 0.0264
G28U C30G | 0.0886
G28U C30U | 0
G28U C30A | 0.0923
G28U C33U | 0.117
G28U C33A | 0.124
G28U G53A | 0.0801
G28U G53C | 0.0692
G28U G53U | 0.124
G28U U37G | 0.18
G28U U37C | 0.141
G28U C41U | 0.0779
G28U G73A | 0
G28U G73C | 0
G28C U79A | 0
G28C U79C | 0.155
G29A C32U | 0.218
G29A C32A | 0.0222
